In EP2292266A1:

Assays:
ErbB2 (human) [1] = target: ErbB2 (human) (UniProt P04626); assay: FRET acceptor photobleaching in fixed, HRG-treated SKBr3 cells (Alexa488 donor on Copine-III, Cy3 acceptor on ErbB2)
[2] = target: pTyr1248-containing peptide of ErbB2 (desthiobiotin-…-NH2, Tyr-phosphorylated form) (human); assay: SILAC peptide affinity pull-down from T47D lysates, MRM mass spectrometry; reference is the non-phosphorylated Tyr1248 peptide
ErbB2 (human) [3] = target: ErbB2 (human) (UniProt P04626); assay: FRET acceptor photobleaching

Copine III, sequence (O75131 whole entry): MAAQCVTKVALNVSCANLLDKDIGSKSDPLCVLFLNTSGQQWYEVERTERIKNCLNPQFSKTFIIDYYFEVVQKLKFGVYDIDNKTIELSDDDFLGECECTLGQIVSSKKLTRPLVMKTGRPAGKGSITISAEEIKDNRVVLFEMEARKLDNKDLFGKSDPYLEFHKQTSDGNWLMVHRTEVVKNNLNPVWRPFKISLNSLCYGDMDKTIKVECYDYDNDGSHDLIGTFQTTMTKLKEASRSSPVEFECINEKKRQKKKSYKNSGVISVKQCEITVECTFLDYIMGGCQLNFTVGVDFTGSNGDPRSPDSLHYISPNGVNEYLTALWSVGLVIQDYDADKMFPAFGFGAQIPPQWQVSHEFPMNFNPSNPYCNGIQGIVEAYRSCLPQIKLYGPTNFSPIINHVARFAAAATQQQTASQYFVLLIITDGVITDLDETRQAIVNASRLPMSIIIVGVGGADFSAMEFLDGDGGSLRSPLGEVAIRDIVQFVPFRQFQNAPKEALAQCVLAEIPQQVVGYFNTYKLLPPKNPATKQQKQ

Which results are given for Copine III (from UniProt O75131 1-537)?
FRET efficiency (E) (ErbB2 (human) [1]): 8.3; quantification ratio (heavy/light peak area, pTyr peptide over Tyr peptide) [2]: 1.8; FRET efficiency (ErbB2 (human) [3]): 8
